{"source": "the DeepSol protein solubility set", "data": [{"assay": "soluble on expression in E. coli; label from the status in PepcDB or PDB records", "values": [{"sequence": "MGSDKIHHHHHHMIEANQILAKMKNQKINYDKVLRKIISQWERDGERPKILLHSCCAPCSTYTLEFLTQYADIAIYFANPNIHPKSEYLRRAKVQEQFVNDFNNKTGASVKYIEAEYEPHKFMKMAKDKGLTEEPEGGLRCTACFEMRLEIVAKAALEHGYDYFGSAITLSPKKNAQLINELGMDVQNIYNVKYLPSDFKKNKGYERSIEMCNDYNIFRQCYCGCVFAAMKQGIDFKQINKDAQAFLQQF", "soluble on expression in E. coli": "not soluble"}, {"sequence": "MGSDKIHHHHHHMIENVNYARTLLTEEEVGHIVQSGTIVRYKKGQIIFSESDAADRVYFVKEGYVRIFRITQYGRRVTVGCIRSPGQLMGLAETLYGGDRTCFASAIDDVTIVVIRHQQFLDLLEKHPAIAIKVTITLAIRMREAEGIIEEMVCFQVPGRLAQLLIKMAKRAGMETPRGTKISFRLTHEDIAYMIGTSRQNVTSLLNTFKYENSIAIEDKELYILDIEKLNSWVV", "soluble on expression in E. coli": "not soluble"}, {"sequence": "MGSDKIHHHHHHMIHKRSNSPNMKPIIEIKNLAAGYDGRTVLHDVNLNVYERDFLGIIGPNGGGKTTLIKCILGLLKPTAGEINFHAPTEASSHSQLSTSNLPLSLGYLPQYSTIDRKFPISVEEVILSGLSIQKSLTSRFTPEQREKGKHIIARMGLEGLEHRSIGQLSGGQLQRALLGRAIISDPSVLILDEPSTYIDKRFEARLYELLAEINKECAIILVSHDIGTVLQQVKSIACVNETLDYHPDTGVSTEWLERNFNCPIELLGHGTLPHRVLGEHHHHH", "soluble on expression in E. coli": "not soluble"}, {"sequence": "MGSDKIHHHHHHMIKEIRQRIENFESDYVFTYQDLNLSPERSERVIKILNRLVAEGIIAKISKGRFYKPKKSVFGMLKPKLEEVVKDFLEKDGEVIGYMTGYLAFNRLGLTTQVPNIIQIGTNVRKNKTVRGMFTISFVIQSNPITKENIPLLQLLDAIKFIKEIPDTTTSQSCKCIMTIIQNLNKKDRDELLILAKKYPPMVRALLGAMVENIYGTNKALPLWNTLNPLTLYNVKIDKQVLPEVRKWRIQ", "soluble on expression in E. coli": "not soluble"}, {"sequence": "MGSDKIHHHHHHMIKIKRGLDLPISGAPEQRIEAARPVRSVALIGFDYHGMKPTMAVQVGDRVKLGQVLFTDKKNPSVSYTAPGAGVVSAIHRGEKRVLQSVVIDLDGDEQLEFARYPADKLATLSAEQVRDNLLQSGLWTALRTRPFSKVPDPESSPSSIFVTAIDTQPLAADPQVVIAEQGEAFQAGLTVLGRLARVFLCKAEGVSLPGEALSGVTAQAFSGPHPAGLPGTHIHFLDPVGAGKSVWNLNYQDVIAIGKLFTTGQLWTERVIALAGPVVEKPRLVRTRLGANLDELAAGQLQPGNNRLISGSVLGGRTAHGAYAYLGRYHLQLSCLKEGDQREFLHYLRAGVEKHSLLNVFVSRLLGGKRFAFTTSTNGSPRAMVPVGNYEAVMPLDILPTQLLRYLIVGDTEMAQKLGALELDEEDLALCSYVCAGKYEYGPILRDNLARIEQEG", "soluble on expression in E. coli": "not soluble"}, {"sequence": "MGSDKIHHHHHHMILFGTGGIRGVMRKGEFDEETVKRASLSTALWLKEKGQKSVVIAYDTRKNSKEFAELAGRVFAGEGIEAYVFPEPTPTPVLSFAVRYMKTGGGVVITASHNPPEYNGYKVYTWDGVQAIPEYTNEITEIYKKVDLSHVKEGEIKFVPPEVKESYIKAVLEIVSNLPMKTDLDIAYSPLHGTGANYVPEVLKRLGFKVRLVEEQMKPDPNFSTVPTPNPEEDEALVLLNKKGATLGLATDPDCDRVGVVFKGRRLTGNQVGVLLTDFLLDHVKVENPLVIKTIVTTDMVRPICEEKGAFLEETPTGFKFIGHLIEEHTKKGDRNFVFGFEESCGYLAGNHARDKDGVVGSVLSAVAFSNYDPYEKLEELYQKYGYYMEKLINFKFEDVDRAVEIYRSLKNYDGIIDYSKGYGNVIPNETIAFVFEKSRIFVRPSGTEPKLKVYIHVRGDTREEAEELMKESESKIKEILKL", "soluble on expression in E. coli": "not soluble"}]}]}
